Results on two molecules are retold here after patent US20120107297A1 (KOREA RESEARCH INSTITUTE OF BIOSCIENCE AND BIOTECHNOLOGY, published 2012).

B1: UCP (endogenous E2EPF ubiquitin carrier protein) (enzyme, human, UniProt Q16763 1-222, looked up)
chain: MNSNVENLPPHIIRLVYKEVTTLTADPPDGIKVFPNEEDLTDLQVTIEGPEGTPYAGGLFRMKLLLGKDFPASPPKGYFLTKIFHPNVGANGEICVNVLKRDWTAELGIRHVLLTIKCLLIHPNPESALNEEAGRLLLENYEEYAARARLLTEIHGGAGGPSGRAEAGRALASGTEASSTDPGAPGGPGGAEGPMAKKHAGERDKKLAAKKKTDKKRALRRL
notes: Endogenous protein in cell lysates; also called E2EPF-UCP; endogenous UCP
B2: Elongin B (endogenous) (other, human, UniProt Q15370 1-118, looked up)
chain: MDVFLMIRRHKTTIFTDAKESSTVFELKRIVEGILKRPPDEQRLYKDDQLLDDGKTLGECGFTSQTARPQAPATVGLAFRADDTFEALCIEPFSSPPELPDVMKPQDSGSSANEQAVQ

Experiment [1] concerns the target T1, VHL E3 ligase complex (comprising VHL, Elongin B, Elongin C and Rbx1) (human, UniProt P40337 1-213; Q15370 1-118; Q15369 1-112; P62877 1-108).
T1 construct: also called VHL E3 ubiquitin ligase complex
Briefly: sucrose density gradient centrifugation of cell lysate, Western blot of fractions. As to the method: (§1) CAKI (kidney cancer cell line) or HepG2 (liver cancer cell line) cells were collected from 10 100 mm culture dishes and frozen at −70° C. The frozen cells were lysed in 0.5 ml of a cell lysis buffer (50 mM Tris, 0.5 mM EDTA, 50 mM KCl, 10% glycerol, 1 mM DTT, 0.5% NP-40, 0.5 mM PMSF). The cell lysate was loaded in 10 ml of 5%-20% sucrose density gradient solution, followed by ultra-centrifugation at 35,000 rpm for 16 hours.
On the technique in general: A western blot detects proteins with antibodies after separation by electrophoresis.

The target of the next experiment is Elongin C (endogenous) (human, UniProt Q15369 1-112). Briefly: summary sentence citing FIG. 7 and FIG. 8b. The method, then: as §1
Chain of Elongin C (endogenous) (Q15369 whole entry): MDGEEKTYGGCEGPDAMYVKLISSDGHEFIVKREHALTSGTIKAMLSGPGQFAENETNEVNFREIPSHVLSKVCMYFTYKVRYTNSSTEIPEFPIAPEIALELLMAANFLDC
Another experiment deals with Rbx1 (endogenous) (human, UniProt P62877 1-108). Kind of experiment: summary sentence citing FIG. 7 and FIG. 8b. As to the method:
as §1

The target in experiment [2] is B1. Kind of experiment: summary sentence citing FIG. 7 and FIG. 8b. The method, then: as §1

T1 sequence (P40337 whole entry, chain 1 of 3): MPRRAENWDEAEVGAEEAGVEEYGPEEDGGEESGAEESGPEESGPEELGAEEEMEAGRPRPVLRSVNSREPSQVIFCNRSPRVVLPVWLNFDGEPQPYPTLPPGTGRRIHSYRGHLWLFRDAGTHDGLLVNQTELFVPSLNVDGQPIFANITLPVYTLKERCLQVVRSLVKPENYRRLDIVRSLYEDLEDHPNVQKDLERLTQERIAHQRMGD
T1 sequence (Q15369 whole entry, chain 3 of 3): as the sequence (Q15369 whole entry) above
T1 sequence (P62877 whole entry, chain 4 of 3): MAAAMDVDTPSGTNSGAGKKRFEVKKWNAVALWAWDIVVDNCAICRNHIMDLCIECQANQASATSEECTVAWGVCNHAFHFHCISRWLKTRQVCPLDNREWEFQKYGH
Chain of Rbx1 (endogenous) (P62877 whole entry): as the sequence (P62877 whole entry, chain 4 of 3) above

Turning to B1, the binding result (in experiment [1]; with Elongin C (endogenous); with Rbx1 (endogenous)) was “no binding” each time.
For the molecule B2, the binding result in experiment [2] is “no binding”.
